In article PMC6262836 one finds Kd, koff and kon data, which are given here for 2 substances.

Values joined by “and” are separate entries in the source; they are usually repeats but may differ in a detail not shown here. Equal entries are not always repeated. Where two headings read alike, the source gives them in different places.

What all share (assay): SPR
In assay [1] the target is Recombinant mouse neuropilin-1 (NRP-1 monomer) (mouse) (UniProt P97333).
The target in assay [2] is Recombinant human VEGFR-2 Fc chimera (human) (UniProt P35968).
The target in assay [3] is Recombinant human VEGFR-1 Fc chimera (human) (UniProt P17948).
The target in assay [4] is Recombinant mouse neuropilin-1 (NRP-1 monomer) (mouse) (UniProt P97333). The source holds these as a separate data set.
The target of assay [5] is Recombinant human VEGFR-2 Fc chimera (human) (UniProt P35968). This is another data set of the same source.
The target of assay [6] is Recombinant human VEGFR-1 Fc chimera (human) (UniProt P17948). This is another data set of the same source.
For assay [7], the target named is Recombinant human VEGFR-2 Fc chimera (human) (UniProt P35968). The source holds these as a separate data set.
Assay [8] shares this target. This is another data set of the same source.
The target in assay [9] is Recombinant human VEGFR-1 Fc chimera (human) (UniProt P17948). This is another data set of the same source.

Sequence of UniProt P35968 (P35968 20-764, change not shown): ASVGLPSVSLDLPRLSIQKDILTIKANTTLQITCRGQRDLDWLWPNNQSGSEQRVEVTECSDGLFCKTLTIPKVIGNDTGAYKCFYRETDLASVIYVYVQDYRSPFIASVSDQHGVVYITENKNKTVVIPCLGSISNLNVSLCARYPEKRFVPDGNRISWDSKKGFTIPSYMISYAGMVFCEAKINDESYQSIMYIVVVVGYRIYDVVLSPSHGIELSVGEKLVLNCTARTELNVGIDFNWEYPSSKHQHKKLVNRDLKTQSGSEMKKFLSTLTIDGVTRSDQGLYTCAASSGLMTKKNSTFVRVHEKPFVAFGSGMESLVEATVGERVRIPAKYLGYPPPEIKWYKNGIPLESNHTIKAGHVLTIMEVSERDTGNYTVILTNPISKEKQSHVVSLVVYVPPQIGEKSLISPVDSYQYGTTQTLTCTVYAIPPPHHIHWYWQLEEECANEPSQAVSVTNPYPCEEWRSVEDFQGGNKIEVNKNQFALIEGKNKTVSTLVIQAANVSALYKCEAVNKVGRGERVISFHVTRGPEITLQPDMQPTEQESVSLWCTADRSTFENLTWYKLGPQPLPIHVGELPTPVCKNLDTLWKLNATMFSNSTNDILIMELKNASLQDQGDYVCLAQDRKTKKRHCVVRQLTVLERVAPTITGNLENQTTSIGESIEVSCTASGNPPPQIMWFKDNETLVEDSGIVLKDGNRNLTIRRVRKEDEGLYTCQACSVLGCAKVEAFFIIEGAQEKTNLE
Sequence of UniProt P97333 (P97333 22-856): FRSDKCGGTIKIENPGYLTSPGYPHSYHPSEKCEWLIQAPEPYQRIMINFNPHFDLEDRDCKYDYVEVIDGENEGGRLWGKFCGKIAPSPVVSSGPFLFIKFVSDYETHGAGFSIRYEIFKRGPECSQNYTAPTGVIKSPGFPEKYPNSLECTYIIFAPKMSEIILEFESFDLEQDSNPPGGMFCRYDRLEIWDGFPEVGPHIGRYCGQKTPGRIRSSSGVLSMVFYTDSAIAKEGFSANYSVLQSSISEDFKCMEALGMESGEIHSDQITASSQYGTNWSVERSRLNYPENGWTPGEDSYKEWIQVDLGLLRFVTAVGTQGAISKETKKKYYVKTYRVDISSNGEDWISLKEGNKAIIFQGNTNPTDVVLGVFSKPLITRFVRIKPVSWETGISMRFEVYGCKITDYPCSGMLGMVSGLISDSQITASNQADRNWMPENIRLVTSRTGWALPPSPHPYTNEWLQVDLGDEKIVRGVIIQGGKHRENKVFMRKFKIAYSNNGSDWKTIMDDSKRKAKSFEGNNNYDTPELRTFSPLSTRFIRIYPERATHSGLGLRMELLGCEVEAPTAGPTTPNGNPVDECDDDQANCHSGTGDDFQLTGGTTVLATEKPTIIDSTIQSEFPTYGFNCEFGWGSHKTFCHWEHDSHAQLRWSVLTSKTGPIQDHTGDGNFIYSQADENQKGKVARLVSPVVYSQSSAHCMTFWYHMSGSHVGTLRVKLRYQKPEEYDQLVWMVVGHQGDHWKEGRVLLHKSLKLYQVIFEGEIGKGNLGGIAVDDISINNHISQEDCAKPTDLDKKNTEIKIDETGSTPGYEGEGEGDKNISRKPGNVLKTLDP
Sequence of UniProt P17948 (P17948 27-758, change not shown): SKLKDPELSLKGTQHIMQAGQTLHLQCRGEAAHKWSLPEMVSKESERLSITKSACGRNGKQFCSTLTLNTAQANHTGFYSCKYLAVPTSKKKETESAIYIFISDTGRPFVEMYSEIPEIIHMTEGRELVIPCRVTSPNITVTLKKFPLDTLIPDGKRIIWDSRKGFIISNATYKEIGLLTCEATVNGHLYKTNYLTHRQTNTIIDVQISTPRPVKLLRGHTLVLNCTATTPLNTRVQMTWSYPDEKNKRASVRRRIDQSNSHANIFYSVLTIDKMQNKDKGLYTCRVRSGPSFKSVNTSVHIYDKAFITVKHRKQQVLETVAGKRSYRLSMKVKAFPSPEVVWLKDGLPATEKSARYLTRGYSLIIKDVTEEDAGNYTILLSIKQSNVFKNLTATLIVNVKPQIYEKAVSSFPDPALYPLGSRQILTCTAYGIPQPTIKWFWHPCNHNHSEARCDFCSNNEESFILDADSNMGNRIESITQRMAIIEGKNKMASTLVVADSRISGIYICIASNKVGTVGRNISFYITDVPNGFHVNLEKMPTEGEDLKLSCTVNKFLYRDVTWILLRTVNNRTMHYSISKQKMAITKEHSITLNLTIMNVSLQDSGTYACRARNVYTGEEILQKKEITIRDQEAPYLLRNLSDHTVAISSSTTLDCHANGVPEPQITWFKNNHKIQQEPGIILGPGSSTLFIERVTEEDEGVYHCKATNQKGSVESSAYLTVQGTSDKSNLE

In general, Kd refers to the equilibrium constant for the complex coming apart. The koff is the first-order rate constant of dissociation. In general, kon refers to a measure of how fast the partners come together. As to Recombinant human VEGF165 (ligand), the Kd in [1] is 25 nM; in assay [2], 8.6 nM; in assay [3] it was 0.196 nM; in [4], 28 nM; in [5] it was 18 nM; in assay [6], 3.7 nM. The koff in assay [1] is 0.065 s⁻¹; in assay [2], 0.0151 s⁻¹; in assay [3] it was 0.000569 s⁻¹ and 0.000592 s⁻¹. In addition, the kon stood at 2.64e+06 M⁻¹ s⁻¹ in assay [1], 1.76e+06 M⁻¹ s⁻¹ in [2] and 2.91e+06 M⁻¹ s⁻¹ in assay [3].

In the case of Recombinant human VEGF121 (ligand), the Kd in [2] amounted to 5.5 nM; in assay [3] it was 6.2 nM; in assay [8] it was 17 nM; in [9], 7.2 nM. In addition, the kon in assay [2] was found to be 5.47e+06 M⁻¹ s⁻¹; in assay [3], 1.43e+06 M⁻¹ s⁻¹; in [7], 547000 M⁻¹ s⁻¹. The koff in [3] was 0.0088 s⁻¹.
